The source of these data is ChEMBL document CHEMBL1130474, “Conformationally restricted arginine analogues as inhibitors of human nitric oxide synthase” (Bioorg Med Chem Lett, 1997).

Substrate in data set [1]: N=C(N)NCCC[C@H](N)C(=O)O
Substrate in data set [2]: N=C(N)NCCC[C@H](N)C(=O)O
This is another data set of the same source.

B1: Nitric oxide synthase 1 (Homo sapiens), P29475 (protein)
chain: MEDHMFGVQQIQPNVISVRLFKRKVGGLGFLVKERVSKPPVIISDLIRGGAAEQSGLIQAGDIILAVNGRPLVDLSYDSALEVLRGIASETHVVLILRGPEGFTTHLETTFTGDGTPKTIRVTQPLGPPTKAVDLSHQPPAGKEQPLAVDGASGPGNGPQHAYDDGQEAGSLPHANGLAPRPPGQDPAKKATRVSLQGRGENNELLKEIEPVLSLLTSGSRGVKGGAPAKAEMKDMGIQVDRDLDGKSHKPLPLGVENDRVFNDLWGKGNVPVVLNNPYSEKEQPPTSGKQSPTKNGSPSKCPRFLKVKNWETEVVLTDTLHLKSTLETGCTEYICMGSIMHPSQHARRPEDVRTKGQLFPLAKEFIDQYYSSIKRFGSKAHMERLEEVNKEIDTTSTYQLKDTELIYGAKHAWRNASRCVGRIQWSKLQVFDARDCTTAHGMFNYICNHVKYATNKGNLRSAITIFPQRTDGKHDFRVWNSQLIRYAGYKQPDGSTLGDPANVQFTEICIQQGWKPPRGRFDVLPLLLQANGNDPELFQIPPELVLEVPIRHPKFEWFKDLGLKWYGLPAVSNMLLEIGGLEFSACPFSGWYMGTEIGVRDYCDNSRYNILEEVAKKMNLDMRKTSSLWKDQALVEINIAVLYSFQSDKVTIVDHHSATESFIKHMENEYRCRGGCPADWVWIVPPMSGSITPVFHQEMLNYRLTPSFEYQPDPWNTHVWKGTNGTPTKRRAIGFKKLAEAVKFSAKLMGQAMAKRVKATILYATETGKSQAYAKTLCEIFKHAFDAKVMSMEEYDIVHLEHETLVLVVTSTFGNGDPPENGEKFGCALMEMRHPNSVQEERKSYKVRFNSVSSYSDSQKSSGDGPDLRDNFESAGPLANVRFSVFGLGSRAYPHFCAFGHAVDTLLEELGGERILKMREGDELCGQEEAFRTWAKKVFKAACDVFCVGDDVNIEKANNSLISNDRSWKRNKFRLTFVAEAPELTQGLSNVHKKRVSAARLLSRQNLQSPKSSRSTIFVRLHTNGSQELQYQPGDHLGVFPGNHEDLVNALIERLEDAPPVNQMVKVELLEERNTALGVISNWTDELRLPPCTIFQAFKYYLDITTPPTPLQLQQFASLATSEKEKQRLLVLSKGLQEYEEWKWGKNPTIVEVLEEFPSIQMPATLLLTQLSLLQPRYYSISSSPDMYPDEVHLTVAIVSYRTRDGEGPIHHGVCSSWLNRIQADELVPCFVRGAPSFHLPRNPQVPCILVGPGTGIAPFRSFWQQRQFDIQHKGMNPCPMVLVFGCRQSKIDHIYREETLQAKNKGVFRELYTAYSREPDKPKKYVQDILQEQLAESVYRALKEQGGHIYVCGDVTMAADVLKAIQRIMTQQGKLSAEDAGVFISRMRDDNRYHEDIFGVTLRTYEVTNRLRSESIAFIEESKKDTDEVFSS
By Km is commonly meant the concentration of substrate that gives half-maximal velocity. B1: the Km in data set [1] was 1.6 µM.

B2: Nitric oxide synthase 3 (Homo sapiens), P29474 (protein)
chain: MGNLKSVAQEPGPPCGLGLGLGLGLCGKQGPATPAPEPSRAPASLLPPAPEHSPPSSPLTQPPEGPKFPRVKNWEVGSITYDTLSAQAQQDGPCTPRRCLGSLVFPRKLQGRPSPGPPAPEQLLSQARDFINQYYSSIKRSGSQAHEQRLQEVEAEVAATGTYQLRESELVFGAKQAWRNAPRCVGRIQWGKLQVFDARDCRSAQEMFTYICNHIKYATNRGNLRSAITVFPQRCPGRGDFRIWNSQLVRYAGYRQQDGSVRGDPANVEITELCIQHGWTPGNGRFDVLPLLLQAPDDPPELFLLPPELVLEVPLEHPTLEWFAALGLRWYALPAVSNMLLEIGGLEFPAAPFSGWYMSTEIGTRNLCDPHRYNILEDVAVCMDLDTRTTSSLWKDKAAVEINVAVLHSYQLAKVTIVDHHAATASFMKHLENEQKARGGCPADWAWIVPPISGSLTPVFHQEMVNYFLSPAFRYQPDPWKGSAAKGTGITRKKTFKEVANAVKISASLMGTVMAKRVKATILYGSETGRAQSYAQQLGRLFRKAFDPRVLCMDEYDVVSLEHETLVLVVTSTFGNGDPPENGESFAAALMEMSGPYNSSPRPEQHKSYKIRFNSISCSDPLVSSWRRKRKESSNTDSAGALGTLRFCVFGLGSRAYPHFCAFARAVDTRLEELGGERLLQLGQGDELCGQEEAFRGWAQAAFQAACETFCVGEDAKAAARDIFSPKRSWKRQRYRLSAQAEGLQLLPGLIHVHRRKMFQATIRSVENLQSSKSTRATILVRLDTGGQEGLQYQPGDHIGVCPPNRPGLVEALLSRVEDPPAPTEPVAVEQLEKGSPGGPPPGWVRDPRLPPCTLRQALTFFLDITSPPSPQLLRLLSTLAEEPREQQELEALSQDPRRYEEWKWFRCPTLLEVLEQFPSVALPAPLLLTQLPLLQPRYYSVSSAPSTHPGEIHLTVAVLAYRTQDGLGPLHYGVCSTWLSQLKPGDPVPCFIRGAPSFRLPPDPSLPCILVGPGTGIAPFRGFWQERLHDIESKGLQPTPMTLVFGCRCSQLDHLYRDEVQNAQQRGVFGRVLTAFSREPDNPKTYVQDILRTELAAEVHRVLCLERGHMFVCGDVTMATNVLQTVQRILATEGDMELDEAGDVIGVLRDQQRYHEDIFGLTLRTQEVTSRIRTQSFSLQERQLRGAVPWAFDPPGSDTNSP
Regarding B2, the Km in data set [2] is 0.9 µM.
